Data reported in the supplement of paper PMC10724198.
± gives the standard deviation of the averaged measurements.

Test system: Saccharomyces cerevisiae
Assay: protein stability index of tFT-peptide fusion (C-terminal peptide) (PSI (0-1 scale)); higher = more stable (slower turnover)
Conditions: temperature: 30 C
Experimental: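 MPS profiling in S. cerevisiae of the yeast C-terminome library: the last 12 aa of each annotated ORF are fused to the C-terminus of a sfGFP-mCherry timer, after a GGGS linker. Cells are FACS-sorted into 8 mCherry/sfGFP bins and deep-sequenced. PSI runs from 0 (unstable) to 1 (stable); wild type and das1Δ backgrounds, two technical replicates each.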

[1] = genetic background: das1 deletion

Sequence: LREMMNKDFAGL [PSD2 C-terminal 12 aa]
- protein stability index [1]: 0.708 ± 0.02
- protein stability index (genetic background: wild type): 0.698 ± 0.0081

Sequence: LRKNRSLDERYF [YML057C-A C-terminal 12 aa]
- protein stability index [1]: 0.7089 ± 0.0023
- protein stability index (genetic background: wild type): 0.6568 ± 0.0029

Sequence: LRNKPFWENKRL [IPL1 C-terminal 12 aa]
- protein stability index [1]: 0.702 ± 0.019
- protein stability index (genetic background: wild type): 0.696 ± 0.015

Sequence: LRRIAKKHHKKK [SPB1 C-terminal 12 aa]
- protein stability index [1]: 0.699 ± 0.044
- protein stability index (genetic background: wild type): 0.722 ± 0.034

Sequence: LRRLTSPSRTQP [BAG7 C-terminal 12 aa]
- protein stability index [1]: 0.71894 ± 0.00039
- protein stability index (genetic background: wild type): 0.705 ± 0.012

Sequence: LRSKGKRYDTRS [YJR018W C-terminal 12 aa]
- protein stability index [1]: 0.7035 ± 0.0016
- protein stability index (genetic background: wild type): 0.708 ± 0.024

Sequence: LRSKSRLRGSHT [AHC1 C-terminal 12 aa]
- protein stability index [1]: 0.73 ± 0.014
- protein stability index (genetic background: wild type): 0.654 ± 0.038

Sequence: LSATIFLRGFLL [YIM2 C-terminal 12 aa]
- protein stability index [1]: 0.675 ± 0.029
- protein stability index (genetic background: wild type): 0.649 ± 0.031

Sequence: LSFVLASLNANK [FUN14 C-terminal 12 aa]
- protein stability index [1]: 0.678 ± 0.021
- protein stability index (genetic background: wild type): 0.67 ± 0.037

Sequence: LSIGQKLTTPLC [SYC1 C-terminal 12 aa]
- protein stability index [1]: 0.651 ± 0.015
- protein stability index (genetic background: wild type): 0.656 ± 0.029

Sequence: LSLIYSPHLYMS [YJL136W-A C-terminal 12 aa]
- protein stability index [1]: 0.643 ± 0.013
- protein stability index (genetic background: wild type): 0.101 ± 0.0022

Sequence: LSNIITLCRIIV [PEX34 C-terminal 12 aa]
- protein stability index [1]: 0.465 ± 0.0065
- protein stability index (genetic background: wild type): 0.319 ± 0.0077

Sequence: LSQLVKKKPRRH [HIF1 C-terminal 12 aa]
- protein stability index [1]: 0.6885 ± 0.0039
- protein stability index (genetic background: wild type): 0.729 ± 0.073

Sequence: LSVKWAVNTLMS [SRP101 C-terminal 12 aa]
- protein stability index [1]: 0.671 ± 0.014
- protein stability index (genetic background: wild type): 0.568 ± 0.039

Sequence: LTSMSARIAFDN [AAD14 C-terminal 12 aa]
- protein stability index [1]: 0.7219 ± 0.0034
- protein stability index (genetic background: wild type): 0.699 ± 0.024

Sequence: LVASNFFYAETK [TFS1 C-terminal 12 aa]
- protein stability index [1]: 0.7066 ± 0.00069
- protein stability index (genetic background: wild type): 0.687 ± 0.028

Sequence: LVPEEEEETKDR [GRX5 C-terminal 12 aa]
- protein stability index [1]: 0.7214 ± 0.0068
- protein stability index (genetic background: wild type): 0.698 ± 0.033

Sequence: LYAFHQVGIHFS [DIM1 C-terminal 12 aa]
- protein stability index [1]: 0.709 ± 0.032
- protein stability index (genetic background: wild type): 0.685 ± 0.014

Sequence: LYELKGLLGNDS [INP2 C-terminal 12 aa]
- protein stability index [1]: 0.681 ± 0.021
- protein stability index (genetic background: wild type): 0.673 ± 0.032

Sequence: LYHKDADTIFHA [IRC11 C-terminal 12 aa]
- protein stability index [1]: 0.708 ± 0.014
- protein stability index (genetic background: wild type): 0.715 ± 0.015

Sequence: LYPLFEAVPFRR [YBL096C C-terminal 12 aa]
- protein stability index [1]: 0.729 ± 0.014
- protein stability index (genetic background: wild type): 0.734 ± 0.01

Sequence: LYSFNQLEPLQT [GIC2 C-terminal 12 aa]
- protein stability index [1]: 0.703 ± 0.0092
- protein stability index (genetic background: wild type): 0.669 ± 0.025

Sequence: MDDEFVSGRFEI [SCH9 C-terminal 12 aa]
- protein stability index [1]: 0.717 ± 0.025
- protein stability index (genetic background: wild type): 0.7026 ± 0.0042

Sequence: MDETIAPLVGCL [YEL008W C-terminal 12 aa]
- protein stability index [1]: 0.724 ± 0.012
- protein stability index (genetic background: wild type): 0.701 ± 0.038

Sequence: MDLEKDRYYDLS [DAS2 C-terminal 12 aa]
- protein stability index [1]: 0.6908 ± 0.0068
- protein stability index (genetic background: wild type): 0.68 ± 0.027

Sequence: MHQYSAIIPSGT [YJL182C C-terminal 12 aa]
- protein stability index [1]: 0.642 ± 0.019
- protein stability index (genetic background: wild type): 0.603 ± 0.0061

Sequence: MITCLTAALKLN [AVT6 C-terminal 12 aa]
- protein stability index [1]: 0.6868 ± 0.0041
- protein stability index (genetic background: wild type): 0.174 ± 0.0018

Sequence: MLQYLVFVYIEK [YCR085W C-terminal 12 aa]
- protein stability index [1]: 0.182 ± 0.0095
- protein stability index (genetic background: wild type): 0.21 ± 0.016

Sequence: MTDFSSSIIKGK [YCR090C C-terminal 12 aa]
- protein stability index [1]: 0.713 ± 0.031
- protein stability index (genetic background: wild type): 0.677 ± 0.048

Sequence: MVKIRTKNDAKN [TAF2 C-terminal 12 aa]
- protein stability index [1]: 0.7067 ± 0.0054
- protein stability index (genetic background: wild type): 0.6135 ± 0.00067

Sequence: MVTSIRSTPNYI [MED6 C-terminal 12 aa]
- protein stability index [1]: 0.694 ± 0.021
- protein stability index (genetic background: wild type): 0.722 ± 0.051

Sequence: NAILNGGSVSGL [YAR066W C-terminal 12 aa]
- protein stability index [1]: 0.677 ± 0.0079
- protein stability index (genetic background: wild type): 0.668 ± 0.02

Sequence: NASYTKKYVPHP [YPR059C C-terminal 12 aa]
- protein stability index [1]: 0.682 ± 0.0097
- protein stability index (genetic background: wild type): 0.703 ± 0.063

Sequence: NATYNDSESSLN [SPO13 C-terminal 12 aa]
- protein stability index [1]: 0.727 ± 0.016
- protein stability index (genetic background: wild type): 0.721 ± 0.0083

Sequence: NDINNSRPITRK [ARO80 C-terminal 12 aa]
- protein stability index [1]: 0.682 ± 0.045
- protein stability index (genetic background: wild type): 0.666 ± 0.03

Sequence: NEDWPNESKPLV [GOR1 C-terminal 12 aa]
- protein stability index [1]: 0.711 ± 0.0072
- protein stability index (genetic background: wild type): 0.663 ± 0.011

Sequence: NEELEKLRPPIT [SIP3 C-terminal 12 aa]
- protein stability index [1]: 0.7001 ± 0.0018
- protein stability index (genetic background: wild type): 0.716 ± 0.052

Sequence: NEIATKLEETKL [TYS1 C-terminal 12 aa]
- protein stability index [1]: 0.694 ± 0.037
- protein stability index (genetic background: wild type): 0.687 ± 0.0072

Sequence: NESLSTILLYII [YKR033C C-terminal 12 aa]
- protein stability index [1]: 0.644 ± 0.008
- protein stability index (genetic background: wild type): 0.561 ± 0.0068

Sequence: NFFESYRTISCL [YPL038W-A C-terminal 12 aa]
- protein stability index [1]: 0.6408 ± 0.0042
- protein stability index (genetic background: wild type): 0.3261 ± 0.0021

Sequence: NFGVSSSFSFKP [PEX3 C-terminal 12 aa]
- protein stability index [1]: 0.7032 ± 0.003
- protein stability index (genetic background: wild type): 0.7154 ± 0.0041
